Measured values from patent US20250250357A1 (NANJING ZAIMING PHARMACEUTICAL, published 2025).

T1: monkey MSLN on HEK293T-monkey MSLN recombinant cells (monkey)
T1 construct: Full-length precursor as transfected; processing on the cell is not described; also called HEK293-monkey MSLN
T1 chain: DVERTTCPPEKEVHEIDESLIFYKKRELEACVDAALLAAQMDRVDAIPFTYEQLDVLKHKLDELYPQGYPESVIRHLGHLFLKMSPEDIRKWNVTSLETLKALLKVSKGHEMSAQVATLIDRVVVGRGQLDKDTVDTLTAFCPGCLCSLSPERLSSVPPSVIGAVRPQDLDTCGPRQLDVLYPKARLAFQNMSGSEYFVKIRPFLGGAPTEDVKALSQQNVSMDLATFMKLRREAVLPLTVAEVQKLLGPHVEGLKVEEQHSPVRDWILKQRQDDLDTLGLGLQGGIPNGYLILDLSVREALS


How the values were obtained:
[1] = target: T2, human MSLN on OVCAR3 tumor cells (human, UniProt Q13421 296-598); test: FACS, OVCAR3 cells
T2 construct: whole, on cells; also called human MSLN protein

[2] = target: T3, human MSLN-R3 on HEK293T-hMSLN-R3 recombinant cells (human, UniProt Q13421 487-606); test: FACS, HEK293T-hMSLN-R3 cells
T3 construct: the C-terminal limit is uncertain; also called human MSLN-R3 membrane protein

[3] = target: T1, monkey MSLN on HEK293T-monkey MSLN …; test: FACS, HEK293T-monkey MSLN cells

T2 sequence (Q13421 other isoform, or with tags, fused parts or gaps): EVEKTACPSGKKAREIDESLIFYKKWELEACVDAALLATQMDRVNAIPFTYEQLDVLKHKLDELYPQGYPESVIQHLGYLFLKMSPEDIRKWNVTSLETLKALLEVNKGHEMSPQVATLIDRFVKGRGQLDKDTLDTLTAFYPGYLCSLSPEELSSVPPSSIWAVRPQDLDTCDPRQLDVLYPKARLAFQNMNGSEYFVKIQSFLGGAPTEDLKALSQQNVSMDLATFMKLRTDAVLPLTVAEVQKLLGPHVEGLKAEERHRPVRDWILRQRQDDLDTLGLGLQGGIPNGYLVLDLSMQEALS
T3 sequence (Q13421 495-614): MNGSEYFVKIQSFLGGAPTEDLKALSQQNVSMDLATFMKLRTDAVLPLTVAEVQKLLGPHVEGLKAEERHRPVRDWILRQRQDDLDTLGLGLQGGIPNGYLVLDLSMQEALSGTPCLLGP

| EC50 [1] [nM] | Maximum_MFI [1] [MFI] | EC50 [2] [nM] | Maximum_MFI [2] [MFI] | EC50 [3] [nM] | Maximum_MFI [3] [MFI] | Binder |
| --- | --- | --- | --- | --- | --- | --- |
| 1.83 | 2140 | 1.52 | 1440 | 7.37 | 8130 | F7.44.20-H14 (scFv, not shown: small tags and cut ends, also called S009-F7.44.20 humanized antibody VH2a + VL2) scFv: EVQLVQSGAEVKKPGASVKVSCKASGYTFTDYNMDWVRQAPGQGLEWMGDINPSTGGTIYNQKFSGRVTMTEDKSASTVYMELSSLRSEDTAVYYCARRRIGTGYFDVWGQGTTVTVSSGGGGSGGGGSGGGGSEIVLTQSPDFQSVTPKEKVTITCSASSSVISSYLSWYQQKPDQSPKLLIYRTSNLASGVPSRFSGSGSGTDYTLTINSLEAEDAATYYCHQWSSFPYTFGGGTKVEIK |
| 1.04 | 1880 | 1.95 | 1650 | 7.09 | 6320 | F7.44.20-H8 (scFv, not shown: small tags and cut ends, also called S009-F7.44.20 humanized antibody VH1a + VL4) scFv: EVQLVQSGAEVKKPGASVKVSCKASGYTFTDYNMDWVRQAPGQGLEWMGDINPSTGGTIYNQKFQGRVTMTEDKSTSTVYMELSSLRSEDTAVYYCARRRIGTGYFDVWGQGTTVTVSSGGGGSGGGGSGGGGSEIVLTQSPATLSLSPGERATLSCSASSSVISSYLSWYQQKPGSSPRLLIYRTSNLASGIPARFSGSGSGTDYTLTISSLEPEDFAVYYCHQWSSFPYTFGGGTKVEIK |
| 1.26 | 1680 | 2.64 | 1470 | 10.4 | 6450 | F7.44.20-H4 (scFv, not shown: small tags and cut ends, also called S009-F7.44.20 humanized antibody VH1 + VL4) scFv: EVQLVQSGAEVKKPGASVKVSCKASGYTFTDYNMDWVRQAPGQGLEWMGDINPSTGGTIYNQKFNGRVTMTEDKSTSTVYMELSSLRSEDTAVYYCARRRIGTGYFDVWGQGTTVTVSSGGGGSGGGGSGGGGSEIVLTQSPATLSLSPGERATLSCSASSSVISSYLSWYQQKPGSSPRLLIYRTSNLASGIPARFSGSGSGTDYTLTISSLEPEDFAVYYCHQWSSFPYTFGGGTKVEIK |

The remaining lines, values behind:

| Binder | EC50 [1] [nM] | Maximum_MFI [1] [MFI] | EC50 [2] [nM] | Maximum_MFI [2] [MFI] | EC50 [3] [nM] | Maximum_MFI [3] [MFI] |
| --- | --- | --- | --- | --- | --- | --- |
| F7.44.20-H13 (scFv, not shown: small tags and cut ends, also called S009-F7.44.20 humanized antibody VH2a + VL1) scFv: EVQLVQSGAEVKKPGASVKVSCKASGYTFTDYNMDWVRQAPGQGLEWMGDINPSTGGTIYNQKFSGRVTMTEDKSASTVYMELSSLRSEDTAVYYCARRRIGTGYFDVWGQGTTVTVSSGGGGSGGGGSGGGGSEIVLTQSPDFQSVTPKEKVTITCSASSSVISSYLSWYQQKPDQSPKLLIYRTSNLASGVPSRFSGSGSGTDFTLTINSLEAEDAATYYCHQWSSFPYTFGGGTKVEIK | 1.33 | 2150 | 0.63 | 1600 | 2.35 | 9320 |
| F7.44.20-H3 (scFv, not shown: small tags and cut ends, also called S009-F7.44.20 humanized antibody VH1 + VL3) scFv: EVQLVQSGAEVKKPGASVKVSCKASGYTFTDYNMDWVRQAPGQGLEWMGDINPSTGGTIYNQKFNGRVTMTEDKSTSTVYMELSSLRSEDTAVYYCARRRIGTGYFDVWGQGTTVTVSSGGGGSGGGGSGGGGSEIVLTQSPATLSLSPGERATLSCSASSSVISSYLSWYQQKPGQSPRLLIYRTSNLASGIPARFSGSGSGTDYTLTISSLEPEDFAVYYCHQWSSFPYTFGGGTKVEIK | 0.69 | 1810 | 1.57 | 1490 | 7.34 | 7000 |
| F7.44.20-H7 (scFv, not shown: small tags and cut ends, also called S009-F7.44.20 humanized antibody VH1a + VL3) scFv: EVQLVQSGAEVKKPGASVKVSCKASGYTFTDYNMDWVRQAPGQGLEWMGDINPSTGGTIYNQKFQGRVTMTEDKSTSTVYMELSSLRSEDTAVYYCARRRIGTGYFDVWGQGTTVTVSSGGGGSGGGGSGGGGSEIVLTQSPATLSLSPGERATLSCSASSSVISSYLSWYQQKPGQSPRLLIYRTSNLASGIPARFSGSGSGTDYTLTISSLEPEDFAVYYCHQWSSFPYTFGGGTKVEIK | 1.11 | 1840 | 2.12 | 1510 | 9.24 | 6130 |
